Positions count from the first letter of the chain named.
B1: E3: human anti-Tie1 antibody from phage Fab library, reformatted as IgG; HC variable SEQ ID NO:114, LC variable SEQ ID NO:116 (antibody, V domains shown)
VH: EVQLLESGGGLVQPGGSLRLSCAASGFTFSMYGMVWVRQAPGKGLEWVSVISPSGGNTGYADSVKGRFTISRDNSKNTLYLQVNSLRAEDTAVYYCARAPRGYSYGYYYWGQGTLVTVSSASTKGPSVFPLAPSSKSTSGG
VL: DIQMTQSPLSLSASVGDRVTITCRASQGIGHYLAWYQQKPGKVPKLLIYTASTLQSGVPSRFSGSGSGTDFTLTINSLQPEDVATYYCQQFNSYPHTFGQGTRLDIK
modifications: IgG constant regions; Synthetically generated peptide
B2: DX-2210: E3 antibody in which the light chain has been germlined (antibody, V domains shown)
VH: B1 VH
VL: B1 VL with L9S, N76S, D105E

Assays:
[1] = tested on: HUVEC; assay: Tube formation by HUVEC in collagen gel; assay type: cell-based, human
Method: Human Umbilical vein endothelial cells (HUVEC) were obtained by treating fresh human umbilical cord veins with Trypsin-EDTA (1×) (Gibco/Invitrogen) for 20-25 minutes at 37° C. The cells were cultured in a T-25 flask coated with attachment factor (AF), (Cascade Biologics) in RPMI 1640 medium supplemented with 10% FCS, 0.4% BBE, 1% 1-glutamin, 1% penicillin/streptomycin. Primary cultures were detached with warm Trypsin-EDTA and used when confluent at the second or third passage. The cells were maintained in a proliferative state by culturing them in a split ratio 1:2 at an approximate density of the monolayer of about 60-80%. […]
After 2 passages HUVECs were seeded in their culture medium (40×10^3/50 μl/well of a 96-well plate) on a collagen gel (50 μl of collagen I 1.5 mg/ml) prepared by mixing 7.5 volumes of 2 mg/ml collagen (Collagen R; Serva, Heidelberg, Germany), 1 volume of 10× MEM, 1.5 volume of NaHCO3 (15.6 mg/ml) and ˜1 volume of NaOH to adjust the pH to 7.4. […] The assay was performed with a streptavidin antibody used as a control (from 1 ng/ml to 10 μg/ml): The total length of the tube network on the culture surface was quantified at 40× magnification by the METAVUE™ Software (Universal Imaging Corporation). Results from triplicate wells were expressed as mean vessel area per field ±SEM (relative units). […]

[2] = biological target: T1, mouse Tie1 (Mus musculus, UniProt Q06806); assay: Flow cytometry on mouse endothelial cell lines; assay type: binding; details: MS1, Le-2, Bend3, SVEC, biotinylated antibody
T1 construct: host or cells: MS1, Le-2, Bend3, SVEC
T1 sequence (Q06806 23-1134): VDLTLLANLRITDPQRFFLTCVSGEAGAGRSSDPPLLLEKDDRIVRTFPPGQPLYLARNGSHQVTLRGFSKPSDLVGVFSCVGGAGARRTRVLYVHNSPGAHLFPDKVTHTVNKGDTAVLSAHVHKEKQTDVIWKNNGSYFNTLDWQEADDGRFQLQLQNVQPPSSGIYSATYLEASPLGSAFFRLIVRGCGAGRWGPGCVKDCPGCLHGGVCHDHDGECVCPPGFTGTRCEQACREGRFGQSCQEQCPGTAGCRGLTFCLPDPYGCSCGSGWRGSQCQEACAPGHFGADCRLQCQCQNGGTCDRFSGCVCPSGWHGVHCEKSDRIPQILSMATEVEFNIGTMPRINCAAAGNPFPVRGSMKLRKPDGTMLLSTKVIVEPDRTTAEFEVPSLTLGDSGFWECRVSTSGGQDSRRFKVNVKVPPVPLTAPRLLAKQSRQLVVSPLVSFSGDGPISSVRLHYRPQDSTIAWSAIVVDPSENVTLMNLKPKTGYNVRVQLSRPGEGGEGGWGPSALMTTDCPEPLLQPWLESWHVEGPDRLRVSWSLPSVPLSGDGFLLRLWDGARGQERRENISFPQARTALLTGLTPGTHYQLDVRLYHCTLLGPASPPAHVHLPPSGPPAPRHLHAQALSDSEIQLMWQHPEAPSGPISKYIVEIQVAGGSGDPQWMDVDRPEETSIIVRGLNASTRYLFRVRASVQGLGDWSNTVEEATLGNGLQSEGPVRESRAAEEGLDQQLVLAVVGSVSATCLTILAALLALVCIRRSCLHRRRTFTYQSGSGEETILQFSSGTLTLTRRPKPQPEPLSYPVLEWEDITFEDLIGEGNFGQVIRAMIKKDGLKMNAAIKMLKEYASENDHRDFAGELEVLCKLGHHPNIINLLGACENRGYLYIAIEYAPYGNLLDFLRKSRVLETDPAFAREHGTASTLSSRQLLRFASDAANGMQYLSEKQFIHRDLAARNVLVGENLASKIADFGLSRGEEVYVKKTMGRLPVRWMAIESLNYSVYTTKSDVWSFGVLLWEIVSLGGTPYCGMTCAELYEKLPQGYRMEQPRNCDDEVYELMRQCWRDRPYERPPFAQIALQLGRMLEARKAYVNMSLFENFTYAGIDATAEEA
Method: We evaluated if E3 cross reacts with mouse Tie1 in situ and thus if we can evaluate E3 activity in mouse tumor xenograft models binding to mouse endothelial cells was tested and compared with human and transfected cell lines.
Specific binding of the Tie1 antibodies and of control Mabs to mouse endothelial cells was measured by flow cytometry analysis (FACSscan, Becton Dickinson, Oxnard, Epics, Coulter). Mouse endothelial cell lines MS1, Le-2, Bend3, SVEC (ATCC, Rockville) and Tie1 transfected Le-2 cells were stained. Cell staining was modified from existing protocols. About 200,000 cells were used in each experiment: after trypsinization, cells were washed one time in PBS and resuspended PBS, 10% heat inactivated human serum (incubation buffer). […] After the final incubation step bound antibodies were detected by means of flow cytometry on a FACSCan and Epics Altra (Becton Dickinson, Oxnard, Coulter) and results analyzed.
Intracellular Tie1 was measured as described above, except for the addition of Saponin to the incubation buffer to a final concentration of 0.1% during incubations. […] The binding pattern in mouse cell lines detected by flow cytometry is different from the binding pattern in HUVEC in that in mouse cells there is a greater cell surface staining than that compared to primary human endothelial cell lines. […]

| Molecule | IC50, tube formation ([1]; HUVEC, collagen type-I matrix, 0.1 ng/ml to 100 ng/ml tested) | inhibition of tube formation by HUVECs ([1]; collagen type-I gel) | binding to mouse endothelial cell lines [2] |
| --- | --- | --- | --- |
| B1 | less than 10 ng/ml | potent inhibitor of tube formation by HUVECS even at a concentration of 10 ng/ml | binds to mouse endothelial cell lines |
| B2 |  |  | stained positively |

— US20100196361A1, “Method of inhibition of vascular development using an antibody” (DYAX CORP., priority 2003, published 2010)
